Laboratory results as given in publication PMC4358367, “Structural basis of diverse membrane target recognitions by ankyrins” (eLife, 2014).
Substitutions are numbered along the chain they refer to. Where no end group is shown, it is not given here.

Assays:
[1] = biological target: T1, AnkB_repeats site 1 mutant 'FF' (Phe131 and Phe164 to Gln) (human, UniProt Q01484 28-873, Phe131 substituted with Gln | Phe164 substituted with Gln); experiment: FP
T1 sequence: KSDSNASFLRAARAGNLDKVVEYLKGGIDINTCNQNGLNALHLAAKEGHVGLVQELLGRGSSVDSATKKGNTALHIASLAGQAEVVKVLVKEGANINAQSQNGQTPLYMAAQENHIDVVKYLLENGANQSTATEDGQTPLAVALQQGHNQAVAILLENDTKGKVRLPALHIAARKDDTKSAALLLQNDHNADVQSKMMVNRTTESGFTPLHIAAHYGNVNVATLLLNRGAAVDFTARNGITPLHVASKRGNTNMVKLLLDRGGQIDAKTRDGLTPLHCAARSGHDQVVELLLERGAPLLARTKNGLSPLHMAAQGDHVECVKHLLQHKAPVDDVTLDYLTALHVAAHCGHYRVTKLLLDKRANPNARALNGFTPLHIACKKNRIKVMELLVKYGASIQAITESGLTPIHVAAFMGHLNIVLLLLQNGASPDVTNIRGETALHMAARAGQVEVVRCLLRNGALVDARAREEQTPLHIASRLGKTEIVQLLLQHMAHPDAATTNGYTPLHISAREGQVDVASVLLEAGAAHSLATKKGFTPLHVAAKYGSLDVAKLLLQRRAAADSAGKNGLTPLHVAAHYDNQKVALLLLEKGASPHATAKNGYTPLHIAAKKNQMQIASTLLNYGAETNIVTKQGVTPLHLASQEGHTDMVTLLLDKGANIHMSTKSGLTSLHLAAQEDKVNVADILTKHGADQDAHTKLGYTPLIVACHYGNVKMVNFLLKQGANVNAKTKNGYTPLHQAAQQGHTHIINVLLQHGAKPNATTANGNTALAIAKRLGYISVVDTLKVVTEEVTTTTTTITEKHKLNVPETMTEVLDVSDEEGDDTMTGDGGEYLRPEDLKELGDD

[2] = biological target: T2, AnkB_repeats (24 ANK repeats of human 220 kDa ankyrin-B, residues 28–873) (human, UniProt Q01484 28-873); experiment: fluorescence polarisation; FITC-labeled peptide (~1 µM) titrated with AnkB_repeats WT or mutants; 25°C; 50 mM Tris pH 8.0, 100 mM NaCl, 1 mM DTT, 1 mM EDTA; one-site binding model; details: both partners purified
T2 construct: ankyrin-B (AnkB), human, 220 kDa isoform used as template, ANK repeats, residues 28-873; source: E. coli BL21 (DE3), purified
T2 sequence (looked up): T1 sequence with Q104F, Q137F

B1: Cav1.3 peptide (mouse Cav1.3 residues 2134–2166), FITC-labeled (peptide, UniProt Q99246-4 2134-2166, looked up)
peptide: ELQDFGPGYSDEEPDPGREEEDLADEMICITTL
modifications: also: FITC label (position not given here)
notes: voltage-gated calcium channel Cav1.3, mouse, residues 2134-2166; also called voltage-gated calcium channel Cav1.3 peptide; source: synthetic peptide (commercially synthesized)
With B1 the Kd [1] was 3.3 µM and the binding result [2] was “binds”.
